Key:
[1] = target: Grb2 SH2 (UniProt P62993); assay: SH2 binding enrichment of the phosphorylated peptide, bacterial display (enrichment ratio); higher = better substrate or ligand; peptides without Tyr show the background
[2] = target: SHP2-C SH2; assay: as above
[3] = target: c-Src SH2; assay: as above
[4] = target: EPHB1 (UniProt P54762); assay: phosphorylation enrichment, bacterial display (enrichment ratio); higher = better substrate or ligand; peptides without Tyr show the background
[5] = target: Fyn (UniProt P06241); assay: as above
Chain of Fyn (P06241 whole entry, looked up): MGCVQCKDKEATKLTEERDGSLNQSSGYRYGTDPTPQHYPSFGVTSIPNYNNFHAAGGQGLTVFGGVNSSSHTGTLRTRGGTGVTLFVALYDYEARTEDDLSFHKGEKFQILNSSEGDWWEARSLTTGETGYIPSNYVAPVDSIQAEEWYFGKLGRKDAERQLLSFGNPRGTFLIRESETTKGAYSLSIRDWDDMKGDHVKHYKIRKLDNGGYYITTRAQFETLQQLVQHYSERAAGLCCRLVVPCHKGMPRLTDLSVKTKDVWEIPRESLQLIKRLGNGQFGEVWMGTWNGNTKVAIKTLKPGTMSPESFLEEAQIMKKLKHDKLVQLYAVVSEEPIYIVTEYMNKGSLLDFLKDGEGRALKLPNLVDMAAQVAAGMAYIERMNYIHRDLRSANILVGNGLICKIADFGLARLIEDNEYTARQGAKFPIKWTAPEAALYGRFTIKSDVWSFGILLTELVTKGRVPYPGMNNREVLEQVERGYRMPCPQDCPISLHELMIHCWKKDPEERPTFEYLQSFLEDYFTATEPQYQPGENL

[6] = target: FGFR1 (UniProt P11362); assay: as above
Chain of FGFR1 (P11362 whole entry, looked up): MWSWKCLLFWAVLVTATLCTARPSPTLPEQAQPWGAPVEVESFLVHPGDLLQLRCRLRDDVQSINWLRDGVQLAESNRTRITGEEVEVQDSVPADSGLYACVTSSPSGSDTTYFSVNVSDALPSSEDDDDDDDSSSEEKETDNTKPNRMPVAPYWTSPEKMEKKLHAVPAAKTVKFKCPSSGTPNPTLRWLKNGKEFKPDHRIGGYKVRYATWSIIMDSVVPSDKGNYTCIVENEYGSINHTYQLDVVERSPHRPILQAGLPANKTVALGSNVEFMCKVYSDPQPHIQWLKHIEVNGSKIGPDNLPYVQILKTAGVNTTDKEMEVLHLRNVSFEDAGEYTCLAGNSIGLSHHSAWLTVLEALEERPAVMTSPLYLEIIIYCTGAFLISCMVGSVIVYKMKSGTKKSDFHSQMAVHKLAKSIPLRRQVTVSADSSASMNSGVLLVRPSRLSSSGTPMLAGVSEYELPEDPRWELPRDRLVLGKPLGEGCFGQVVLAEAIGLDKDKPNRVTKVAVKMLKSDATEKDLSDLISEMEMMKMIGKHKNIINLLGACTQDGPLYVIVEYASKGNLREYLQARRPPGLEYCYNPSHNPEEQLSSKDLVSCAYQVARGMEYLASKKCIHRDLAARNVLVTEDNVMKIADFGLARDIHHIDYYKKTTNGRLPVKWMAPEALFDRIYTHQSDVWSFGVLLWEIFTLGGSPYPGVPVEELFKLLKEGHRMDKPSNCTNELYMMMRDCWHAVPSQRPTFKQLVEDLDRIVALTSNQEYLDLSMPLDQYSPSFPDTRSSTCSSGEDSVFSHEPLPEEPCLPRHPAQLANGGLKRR

[7] = test system: c-Abl (mouse); assay: as above
[8] = target: Jak2 (UniProt O60674); assay: as above
Chain of Jak2 (O60674 whole entry, looked up): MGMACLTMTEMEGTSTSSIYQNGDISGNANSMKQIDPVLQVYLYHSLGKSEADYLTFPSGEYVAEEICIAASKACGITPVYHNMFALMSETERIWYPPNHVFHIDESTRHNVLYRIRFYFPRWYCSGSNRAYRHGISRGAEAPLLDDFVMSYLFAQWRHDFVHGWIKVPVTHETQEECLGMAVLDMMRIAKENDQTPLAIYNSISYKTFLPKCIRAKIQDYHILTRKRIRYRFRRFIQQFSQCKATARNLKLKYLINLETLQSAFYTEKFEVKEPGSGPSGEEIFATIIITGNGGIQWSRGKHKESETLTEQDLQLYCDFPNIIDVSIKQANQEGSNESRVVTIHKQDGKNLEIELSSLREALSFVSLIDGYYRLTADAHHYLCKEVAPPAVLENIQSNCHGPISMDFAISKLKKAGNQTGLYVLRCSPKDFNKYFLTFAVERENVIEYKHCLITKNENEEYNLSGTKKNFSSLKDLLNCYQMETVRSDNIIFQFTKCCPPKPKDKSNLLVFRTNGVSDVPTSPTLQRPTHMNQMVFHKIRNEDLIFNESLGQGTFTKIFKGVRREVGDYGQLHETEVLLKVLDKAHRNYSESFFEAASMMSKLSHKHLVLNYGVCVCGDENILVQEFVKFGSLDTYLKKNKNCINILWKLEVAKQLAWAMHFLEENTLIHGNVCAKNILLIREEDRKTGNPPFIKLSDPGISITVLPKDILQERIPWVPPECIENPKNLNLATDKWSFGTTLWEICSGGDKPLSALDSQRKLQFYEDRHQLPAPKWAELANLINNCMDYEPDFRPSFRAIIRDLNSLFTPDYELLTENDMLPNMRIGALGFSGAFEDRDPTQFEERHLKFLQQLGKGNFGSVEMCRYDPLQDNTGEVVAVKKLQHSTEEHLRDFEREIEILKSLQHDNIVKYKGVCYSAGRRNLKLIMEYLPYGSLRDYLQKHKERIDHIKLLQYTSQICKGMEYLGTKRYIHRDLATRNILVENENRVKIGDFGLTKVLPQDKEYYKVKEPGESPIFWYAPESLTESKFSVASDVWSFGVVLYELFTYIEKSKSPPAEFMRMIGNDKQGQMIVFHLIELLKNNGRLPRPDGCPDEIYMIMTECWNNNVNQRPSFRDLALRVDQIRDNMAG

[9] = target: Fes (UniProt P07332); assay: as above
[10] = test system: Fer (mouse); assay: as above
[11] = target: EPHB2 (UniProt P29323); assay: as above
[12] = target: Hck (UniProt P08631); assay: as above
Chain of Hck (P08631 whole entry, looked up): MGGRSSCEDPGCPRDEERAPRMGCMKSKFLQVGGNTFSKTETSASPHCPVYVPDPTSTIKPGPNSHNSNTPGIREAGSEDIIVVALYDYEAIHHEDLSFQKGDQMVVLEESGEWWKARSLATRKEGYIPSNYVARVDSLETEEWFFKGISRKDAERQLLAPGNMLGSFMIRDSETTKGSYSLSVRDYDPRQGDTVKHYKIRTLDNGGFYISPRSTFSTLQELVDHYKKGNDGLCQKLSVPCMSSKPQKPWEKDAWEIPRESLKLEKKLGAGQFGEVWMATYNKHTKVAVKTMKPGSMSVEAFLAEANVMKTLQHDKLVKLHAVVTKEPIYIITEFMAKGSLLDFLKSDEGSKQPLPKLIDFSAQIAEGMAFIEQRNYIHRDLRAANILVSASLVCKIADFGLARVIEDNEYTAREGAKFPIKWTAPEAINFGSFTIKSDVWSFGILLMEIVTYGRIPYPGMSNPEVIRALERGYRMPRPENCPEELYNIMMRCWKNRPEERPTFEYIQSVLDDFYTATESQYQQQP

[13] = target: MERTK (UniProt Q12866); assay: as above
[14] = target: FGFR3 (UniProt P22607); assay: as above
Chain of FGFR3 (P22607 whole entry, looked up): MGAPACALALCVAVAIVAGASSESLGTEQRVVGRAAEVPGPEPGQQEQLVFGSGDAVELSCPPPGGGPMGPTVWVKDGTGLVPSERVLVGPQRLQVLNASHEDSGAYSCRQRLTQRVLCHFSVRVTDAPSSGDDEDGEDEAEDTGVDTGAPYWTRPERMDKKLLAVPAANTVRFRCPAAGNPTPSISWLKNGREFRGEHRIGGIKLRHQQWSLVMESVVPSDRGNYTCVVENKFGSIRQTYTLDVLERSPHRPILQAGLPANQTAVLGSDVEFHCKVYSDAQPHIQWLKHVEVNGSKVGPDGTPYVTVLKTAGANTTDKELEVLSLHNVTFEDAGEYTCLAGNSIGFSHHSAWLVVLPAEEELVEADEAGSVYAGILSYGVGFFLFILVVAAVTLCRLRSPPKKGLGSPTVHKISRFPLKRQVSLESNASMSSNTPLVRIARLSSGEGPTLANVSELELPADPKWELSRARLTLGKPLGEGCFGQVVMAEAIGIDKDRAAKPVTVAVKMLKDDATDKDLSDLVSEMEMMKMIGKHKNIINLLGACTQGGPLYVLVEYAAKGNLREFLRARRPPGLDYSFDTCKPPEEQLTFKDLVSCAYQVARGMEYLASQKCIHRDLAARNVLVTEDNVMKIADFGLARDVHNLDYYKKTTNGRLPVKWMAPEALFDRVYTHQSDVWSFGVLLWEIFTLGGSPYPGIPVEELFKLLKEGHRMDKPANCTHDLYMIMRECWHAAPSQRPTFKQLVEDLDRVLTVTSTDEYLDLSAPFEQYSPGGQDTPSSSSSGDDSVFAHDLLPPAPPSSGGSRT

[15] = test system: c-Src; assay: as above
[16] = test system: AncSZ; assay: as above
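For SH2 binding enrichment of the phosphorylated peptide, bacterial display in this document: peptide library displayed on the E. coli surface as eCPX fusions, selected cells deep-sequenced, score is each peptide's frequency after selection divided by its frequency in the input.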
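For phosphorylation enrichment, bacterial display in this document: 11-residue human phosphosite peptides and single-mutation variants displayed on the E. coli surface, counted by deep sequencing, each peptide's frequency after selection divided by its frequency in the unselected input library; frequency after pTyr selection over input frequency; kinase dosed for 20-30% of maximal phosphorylation in three min.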

Chain of EPHB1 (P54762 whole entry, looked up): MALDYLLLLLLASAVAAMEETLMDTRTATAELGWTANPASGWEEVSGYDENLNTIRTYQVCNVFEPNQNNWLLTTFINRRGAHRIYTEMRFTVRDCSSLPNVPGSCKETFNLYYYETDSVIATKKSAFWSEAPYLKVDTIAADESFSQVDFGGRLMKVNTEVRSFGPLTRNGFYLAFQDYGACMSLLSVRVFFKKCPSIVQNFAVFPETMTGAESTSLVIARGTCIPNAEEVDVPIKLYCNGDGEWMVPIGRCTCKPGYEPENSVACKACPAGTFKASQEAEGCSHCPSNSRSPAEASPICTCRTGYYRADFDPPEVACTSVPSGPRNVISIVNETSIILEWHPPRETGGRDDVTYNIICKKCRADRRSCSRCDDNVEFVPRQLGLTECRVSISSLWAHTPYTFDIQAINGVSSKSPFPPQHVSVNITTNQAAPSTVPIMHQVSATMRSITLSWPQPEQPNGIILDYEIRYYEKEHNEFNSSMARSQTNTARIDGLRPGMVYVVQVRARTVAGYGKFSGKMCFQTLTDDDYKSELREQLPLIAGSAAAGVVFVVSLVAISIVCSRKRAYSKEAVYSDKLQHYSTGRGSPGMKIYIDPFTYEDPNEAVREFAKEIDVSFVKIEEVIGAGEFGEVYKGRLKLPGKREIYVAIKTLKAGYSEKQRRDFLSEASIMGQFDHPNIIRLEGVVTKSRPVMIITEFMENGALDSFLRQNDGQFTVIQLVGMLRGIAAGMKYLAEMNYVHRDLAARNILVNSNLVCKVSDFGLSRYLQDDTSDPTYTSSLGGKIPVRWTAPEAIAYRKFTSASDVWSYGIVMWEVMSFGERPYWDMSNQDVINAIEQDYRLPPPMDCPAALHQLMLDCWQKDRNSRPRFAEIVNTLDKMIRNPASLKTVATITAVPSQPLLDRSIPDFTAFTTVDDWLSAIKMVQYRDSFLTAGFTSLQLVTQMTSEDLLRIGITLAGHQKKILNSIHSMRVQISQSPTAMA
Chain of Grb2 SH2 (P62993 whole entry, looked up): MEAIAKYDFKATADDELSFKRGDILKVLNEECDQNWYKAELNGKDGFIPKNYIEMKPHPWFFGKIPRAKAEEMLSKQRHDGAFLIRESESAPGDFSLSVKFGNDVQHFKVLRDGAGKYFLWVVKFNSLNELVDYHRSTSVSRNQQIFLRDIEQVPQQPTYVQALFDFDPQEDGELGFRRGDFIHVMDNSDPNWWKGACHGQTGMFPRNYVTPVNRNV

For YSQNICIQNRN [PKP2_Y631_Y631C], the SH2 binding enrichment [1] was 0.7, the SH2 binding enrichment [2] was 0.619 and the SH2 binding enrichment [3] was 0.56. For the same sequence, the phosphorylation enrichment [4] was 0.529, the phosphorylation enrichment [5] was 0.415 and the phosphorylation enrichment [6] was 0.524. The phosphorylation enrichment [7] was 0.663, the phosphorylation enrichment [8] was 0.777 and the phosphorylation enrichment [9] was 1.01. For the same sequence, the phosphorylation enrichment [10] was 0.498, the phosphorylation enrichment [11] was 0.503 and the phosphorylation enrichment [12] was 0.501. It also gave a phosphorylation enrichment [13] of 0.49, a phosphorylation enrichment [14] of 0.641 and a phosphorylation enrichment [15] of 0.432. The phosphorylation enrichment [16] was 0.874.

For GGTPLYRDRQG [AGXT_Y194_M195R], the SH2 binding enrichment [1] was 0.87, the SH2 binding enrichment [2] was 0.78 and the SH2 binding enrichment [3] was 0.389. The phosphorylation enrichment [4] was 0.383, the phosphorylation enrichment [5] was 0.378 and the phosphorylation enrichment [6] was 0.44. The phosphorylation enrichment [7] was 0.5, the phosphorylation enrichment [8] was 0.4 and the phosphorylation enrichment [9] was 0.499. For the same sequence, the phosphorylation enrichment [10] was 0.415, the phosphorylation enrichment [11] was 0.435 and the phosphorylation enrichment [12] was 0.398. For the same sequence, the phosphorylation enrichment [13] was 0.364, the phosphorylation enrichment [14] was 0.423 and the phosphorylation enrichment [15] was 0.358. It also gave a phosphorylation enrichment [16] of 0.652.

Work on VDLSKYITTIA [FAS_Y232] yielded an SH2 binding enrichment [1] of 0.881, an SH2 binding enrichment [2] of 0.604 and an SH2 binding enrichment [3] of 0.451. For the same sequence, the phosphorylation enrichment [4] was 0.378, the phosphorylation enrichment [5] was 0.348 and the phosphorylation enrichment [6] was 0.363. For the same sequence, the phosphorylation enrichment [7] was 0.513, the phosphorylation enrichment [8] was 0.67 and the phosphorylation enrichment [9] was 0.815. For the same sequence, the phosphorylation enrichment [10] was 0.394, the phosphorylation enrichment [11] was 0.341 and the phosphorylation enrichment [12] was 0.407. For the same sequence, the phosphorylation enrichment [13] was 0.426, the phosphorylation enrichment [14] was 0.452 and the phosphorylation enrichment [15] was 0.424. It also gave a phosphorylation enrichment [16] of 0.657.

For ALKKPYGVLFK [RPF2_Y59_YF], the SH2 binding enrichment [1] was 2.15, the SH2 binding enrichment [2] was 2.29 and the SH2 binding enrichment [3] was 1.76. For the same sequence, the phosphorylation enrichment [4] was 0.469, the phosphorylation enrichment [5] was 0.562 and the phosphorylation enrichment [6] was 0.404. It also gave a phosphorylation enrichment [7] of 0.712, a phosphorylation enrichment [8] of 0.73 and a phosphorylation enrichment [9] of 0.722. The phosphorylation enrichment [10] was 0.403, the phosphorylation enrichment [11] was 0.502 and the phosphorylation enrichment [12] was 0.632. The phosphorylation enrichment [13] was 0.528, the phosphorylation enrichment [14] was 0.518 and the phosphorylation enrichment [15] was 0.777. The phosphorylation enrichment [16] was 0.765.

For PIDLFYLMDLS [ITGB2_Y131_YF], the SH2 binding enrichment [1] was 0.957, the SH2 binding enrichment [2] was 0.88 and the SH2 binding enrichment [3] was 0.524. The phosphorylation enrichment [4] was 0.737, the phosphorylation enrichment [5] was 0.599 and the phosphorylation enrichment [6] was 0.633. It also gave a phosphorylation enrichment [7] of 0.98, a phosphorylation enrichment [8] of 1.22 and a phosphorylation enrichment [9] of 1.99. For the same sequence, the phosphorylation enrichment [10] was 0.426, the phosphorylation enrichment [11] was 0.559 and the phosphorylation enrichment [12] was 0.771. The phosphorylation enrichment [13] was 0.728, the phosphorylation enrichment [14] was 1.13 and the phosphorylation enrichment [15] was 1.52. For the same sequence, the phosphorylation enrichment [16] was 1.61.

YVSSFYHAFSG [ACTN4_Y265] gave an SH2 binding enrichment [1] of 1.2, an SH2 binding enrichment [2] of 1.79 and an SH2 binding enrichment [3] of 2.2. The phosphorylation enrichment [4] was 2.21, the phosphorylation enrichment [5] was 2.76 and the phosphorylation enrichment [6] was 3.31. The phosphorylation enrichment [7] was 1.28, the phosphorylation enrichment [8] was 0.895 and the phosphorylation enrichment [9] was 0.884. For the same sequence, the phosphorylation enrichment [10] was 0.564, the phosphorylation enrichment [11] was 1.41 and the phosphorylation enrichment [12] was 2.82. The phosphorylation enrichment [13] was 8.9, the phosphorylation enrichment [14] was 2.32 and the phosphorylation enrichment [15] was 3.68. The phosphorylation enrichment [16] was 1.04.

Sequence LSFSEYASVQV [SIRPA_Y496_P491L] has an SH2 binding enrichment [1] of 0.934, an SH2 binding enrichment [2] of 0.783 and an SH2 binding enrichment [3] of 0.671. For the same sequence, the phosphorylation enrichment [4] was 7.83, the phosphorylation enrichment [5] was 3.8 and the phosphorylation enrichment [6] was 2.22. For the same sequence, the phosphorylation enrichment [7] was 4.03, the phosphorylation enrichment [8] was 1.1 and the phosphorylation enrichment [9] was 1.64. For the same sequence, the phosphorylation enrichment [10] was 5.53, the phosphorylation enrichment [11] was 8.7 and the phosphorylation enrichment [12] was 2.93. It also gave a phosphorylation enrichment [13] of 0.671, a phosphorylation enrichment [14] of 2.1 and a phosphorylation enrichment [15] of 2.14. For the same sequence, the phosphorylation enrichment [16] was 2.44.

Sequence DLDTEYGSGFP [RNASEH2A_Y206_D205E_YF] has an SH2 binding enrichment [1] of 1.06, an SH2 binding enrichment [2] of 0.622 and an SH2 binding enrichment [3] of 0.429. The phosphorylation enrichment [4] was 0.676, the phosphorylation enrichment [5] was 0.744 and the phosphorylation enrichment [6] was 0.622. The phosphorylation enrichment [7] was 1.27, the phosphorylation enrichment [8] was 1.39 and the phosphorylation enrichment [9] was 1.34. It also gave a phosphorylation enrichment [10] of 0.799, a phosphorylation enrichment [11] of 0.642 and a phosphorylation enrichment [12] of 0.654. For the same sequence, the phosphorylation enrichment [13] was 0.469, the phosphorylation enrichment [14] was 0.958 and the phosphorylation enrichment [15] was 0.825. It also gave a phosphorylation enrichment [16] of 1.55.

With FLAVGYHQPHI [IDS_Y225_K227Q] the SH2 binding enrichment [1] was 0.879, the SH2 binding enrichment [2] was 1.25 and the SH2 binding enrichment [3] was 1.55. For the same sequence, the phosphorylation enrichment [4] was 0.448, the phosphorylation enrichment [5] was 0.418 and the phosphorylation enrichment [6] was 0.391. It also gave a phosphorylation enrichment [7] of 0.57, a phosphorylation enrichment [8] of 0.447 and a phosphorylation enrichment [9] of 0.593. It also gave a phosphorylation enrichment [10] of 0.35, a phosphorylation enrichment [11] of 0.415 and a phosphorylation enrichment [12] of 0.405. It also gave a phosphorylation enrichment [13] of 0.298, a phosphorylation enrichment [14] of 0.514 and a phosphorylation enrichment [15] of 0.297. The phosphorylation enrichment [16] was 0.559.

Sequence HAVFVCDICHV [TWNK_Y508_Y508C_YF] has an SH2 binding enrichment [1] of 1.97, an SH2 binding enrichment [2] of 1.41 and an SH2 binding enrichment [3] of 1.98. The phosphorylation enrichment [4] was 0.627, the phosphorylation enrichment [5] was 0.455 and the phosphorylation enrichment [6] was 0.506. It also gave a phosphorylation enrichment [7] of 0.641, a phosphorylation enrichment [8] of 0.948 and a phosphorylation enrichment [9] of 0.836. It also gave a phosphorylation enrichment [10] of 0.696, a phosphorylation enrichment [11] of 0.631 and a phosphorylation enrichment [12] of 0.603. It also gave a phosphorylation enrichment [13] of 0.689, a phosphorylation enrichment [14] of 0.775 and a phosphorylation enrichment [15] of 0.807. For the same sequence, the phosphorylation enrichment [16] was 0.933.

VPFAQYLAMNK [HARS1_Y138_R137Q] showed an SH2 binding enrichment [1] of 0.959, an SH2 binding enrichment [2] of 0.798 and an SH2 binding enrichment [3] of 0.533. For the same sequence, the phosphorylation enrichment [4] was 0.488, the phosphorylation enrichment [5] was 0.458 and the phosphorylation enrichment [6] was 0.494. For the same sequence, the phosphorylation enrichment [7] was 0.504, the phosphorylation enrichment [8] was 0.838 and the phosphorylation enrichment [9] was 0.639. It also gave a phosphorylation enrichment [10] of 0.406, a phosphorylation enrichment [11] of 0.431 and a phosphorylation enrichment [12] of 0.54. For the same sequence, the phosphorylation enrichment [13] was 0.403, the phosphorylation enrichment [14] was 0.536 and the phosphorylation enrichment [15] was 0.44. It also gave a phosphorylation enrichment [16] of 0.685.

Work on HKLSFCEFDFE [BTK_Y40_Y40C_YF] yielded an SH2 binding enrichment [1] of 1.11, an SH2 binding enrichment [2] of 0.937 and an SH2 binding enrichment [3] of 0.622. For the same sequence, the phosphorylation enrichment [4] was 0.934, the phosphorylation enrichment [5] was 0.764 and the phosphorylation enrichment [6] was 0.844. For the same sequence, the phosphorylation enrichment [7] was 1.78, the phosphorylation enrichment [8] was 2.48 and the phosphorylation enrichment [9] was 3.4. For the same sequence, the phosphorylation enrichment [10] was 0.965, the phosphorylation enrichment [11] was 0.787 and the phosphorylation enrichment [12] was 0.83. The phosphorylation enrichment [13] was 0.776, the phosphorylation enrichment [14] was 1.34 and the phosphorylation enrichment [15] was 1.03. It also gave a phosphorylation enrichment [16] of 3.33.

MYDKEYYSVHN [MET_Y1234] gave an SH2 binding enrichment [1] of 0.873, an SH2 binding enrichment [2] of 0.566 and an SH2 binding enrichment [3] of 0.622. For the same sequence, the phosphorylation enrichment [4] was 0.965, the phosphorylation enrichment [5] was 0.64 and the phosphorylation enrichment [6] was 7.14. It also gave a phosphorylation enrichment [7] of 1.05, a phosphorylation enrichment [8] of 2.53 and a phosphorylation enrichment [9] of 1.1. The phosphorylation enrichment [10] was 0.727, the phosphorylation enrichment [11] was 1.13 and the phosphorylation enrichment [12] was 0.903. The phosphorylation enrichment [13] was 0.813, the phosphorylation enrichment [14] was 4.25 and the phosphorylation enrichment [15] was 1.65. For the same sequence, the phosphorylation enrichment [16] was 2.1.

DGMADYSDPSF [CDC5L_Y459_YF] gave an SH2 binding enrichment [1] of 0.781, an SH2 binding enrichment [2] of 0.662 and an SH2 binding enrichment [3] of 0.557. For the same sequence, the phosphorylation enrichment [4] was 1.72, the phosphorylation enrichment [5] was 0.488 and the phosphorylation enrichment [6] was 0.911. For the same sequence, the phosphorylation enrichment [7] was 1.04, the phosphorylation enrichment [8] was 1.12 and the phosphorylation enrichment [9] was 1.2. For the same sequence, the phosphorylation enrichment [10] was 0.592, the phosphorylation enrichment [11] was 3.21 and the phosphorylation enrichment [12] was 0.63. For the same sequence, the phosphorylation enrichment [13] was 0.5, the phosphorylation enrichment [14] was 1 and the phosphorylation enrichment [15] was 0.501. It also gave a phosphorylation enrichment [16] of 1.92.

Sequence NGSKAYAFVHF [PABPC5_Y147_G146A_YF] has an SH2 binding enrichment [1] of 1.05, an SH2 binding enrichment [2] of 20.4 and an SH2 binding enrichment [3] of 1.65. For the same sequence, the phosphorylation enrichment [4] was 0.586, the phosphorylation enrichment [5] was 0.442 and the phosphorylation enrichment [6] was 0.649. The phosphorylation enrichment [7] was 0.618, the phosphorylation enrichment [8] was 0.796 and the phosphorylation enrichment [9] was 1.02. The phosphorylation enrichment [10] was 0.769, the phosphorylation enrichment [11] was 0.606 and the phosphorylation enrichment [12] was 0.531. For the same sequence, the phosphorylation enrichment [13] was 0.71, the phosphorylation enrichment [14] was 0.763 and the phosphorylation enrichment [15] was 0.372. It also gave a phosphorylation enrichment [16] of 0.97.

Work on TTSQLYDAVPI [PDPK1_Y9] yielded an SH2 binding enrichment [1] of 0.728, an SH2 binding enrichment [2] of 0.848 and an SH2 binding enrichment [3] of 0.485. For the same sequence, the phosphorylation enrichment [4] was 13.4, the phosphorylation enrichment [5] was 10.2 and the phosphorylation enrichment [6] was 0.611. It also gave a phosphorylation enrichment [7] of 1.31, a phosphorylation enrichment [8] of 0.849 and a phosphorylation enrichment [9] of 1.41. For the same sequence, the phosphorylation enrichment [10] was 19.6, the phosphorylation enrichment [11] was 17.1 and the phosphorylation enrichment [12] was 11.5. It also gave a phosphorylation enrichment [13] of 13, a phosphorylation enrichment [14] of 0.786 and a phosphorylation enrichment [15] of 7.33. The phosphorylation enrichment [16] was 1.28.
